The values that follow come from paper PMC3820850.

The term Kd denotes the constant that tells how readily two partners part at equilibrium. Broadly, the koff is a measure of how fast the partners let go of each other. A high value points to fast dissociation. By kon is commonly meant the second-order rate constant of association.

In assay [1] the target is native glycophorin-A extracted from human erythrocytes, chemically biotinylated (human) (UniProt P02724). The assay is described as follows: SPR; equilibrium; biotinylated GYPA immobilised on streptavidin chip, biotinylated Cd4 tag as reference; SEC-separated analyte injected at 20 μl/min; BIAcore T100, 37 °C, HBS-EP; steady-state 1:1 fit. (In general: SPR reads the build-up and loss of mass on a sensor chip optically.)

The target is the same in assay [2]. In words: SPR; kinetic; biotinylated GYPA immobilised on streptavidin chip; analyte injected at 100 μl/min; 37 °C, HBS-EP; nonlinear fit of association and dissociation phases.
In assay [3] the target is PfEBA175 FL (entire ectodomain of P. falciparum 3D7 EBA175), Cd4-tagged and enzymatically biotinylated (P. falciparum (3D7)). The assay is described as follows: SPR; homophilic; biotinylated PfEBA175 FL immobilised on streptavidin chip, soluble PfEBA175 FL as analyte; quantified from the dissociation phase; 37 °C, HBS-EP.
Assay [4] shares this target. The assay is described as follows: SPR; equilibrium; biotinylated PfEBA175 FL immobilised, serial dilutions of PfEBA175 FL or RII injected; responses at equilibrium as a fraction of calculated Rmax; 37 °C, HBS-EP.

For the substance “PfEBA175 FL (entire ectodomain of P. falciparum 3D7 EBA175), Cd4- and hexa-His-tagged, soluble (domain or fragment)”, in assay [1], the Kd came out at 0.26 µM. Besides, the koff in assay [2] is 0.0968 s⁻¹; in assay [3] it was 0.04 s⁻¹. The substance further displayed a kon in assay [2] of 860000 M⁻¹ s⁻¹.
“PfEBA175 RII (region II, tandem DBL domains F1 and F2), Cd4- and hexa-His-tagged, soluble (domain or fragment)” gave a Kd in assay [1] of 2.52 µM. Besides, the fold weaker binding affinity to PfEBA175 FL than that of PfEBA175 FL in assay [4] is 70 fold.
